For eleven molecules, Absorbance results are on record in patent US20230093265A1 (PROSMEDIC SWEDEN, published 2023).

B1: human synthetic scFv fragment 3 (scFv)
scFv: EVQLLESGGGLVQPGGSLRLSCAASGFTFSSYAMSWVRQAPGKGLEWVSAISGSGGSTYYASVKGRFTISRDNSKNTLYLQMNSLRAEDTAVYYCARVYYHYYYYGSFDYWGQGTLVTVSSGGGGSGGGGSGGGGSDIQMTQSPSSLSASVGDRVTITCRASQSISSYLNWYQQKPGKAPKLLIYAASSLQSGVPSRFSGSGSGTDFTLTISSLQPEDFATYYCQQSTHLSTFGQGTKLEIKR
notes: also called scFv 3
B2: human synthetic scFv fragment 2 (scFv)
scFv: EVQLLESGGGLVQPGGSLRLSCAASGFTFSSYAMSWVRQAPGKGLEWVSAISGSGGSTYYASVKGRFTISRDNSKNTLYLQMNSLRAEDTAVYYCARTTSYYGYSAHFIDYWGQGTLVTVSSGGGGSGGGGSGGGGSDIQMTQSPSSLSASVGDRVTITCRASQSISSYLNWYQQKPGKAPKLLIYAASSLQSGVPSRFSGSGSGTDFTLTISSLQPEDFATYYCQQGYGPFTFGQGTKLEIKR
notes: also called scFv 2
B3: human synthetic scFv fragment 10 (scFv)
scFv: EVQLLESGGGLVQPGGSLRLSCAASGFTFSSYAMSWVRQAPGKGLEWVSAISGSGGSTYYASVKGRFTISRDNSKNTLYLQMNSLRAEDTAVYYCARYSYYYTWLDYWGQGTLVTVSSGGGGSGGGGSGGGGSDIQMTQSPSSLSASVGDRVTITCRASQSISSYLNWYQQKPGKAPKLLIYAASSLQSGVPSRFSGSGSGTDFTLTISSLQPEDFATYYCQQFYPSLHTFGQGTKLEIKR
notes: also called scFv 10
B4: human synthetic scFv fragment 1 (scFv)
scFv: EVQLLESGGGLVQPGGSLRLSCAASGFTFSSYAMSWVRQAPGKGLEWVSAISGSGGSTYYASVKGRFTISRDNSKNTLYLQMNSLRAEDTAVYYCARHYYNWASGYFDYWGQGTLVTVSSGGGGSGGGGSGGGGSDIQMTQSPSSLSASVGDRVTITCRASQSISSYLNWYQQKPGKAPKLLIYAASSLQSGVPSRFSGSGSGTDFTLTISSLQPEDFATYYCQQGWYPPTFGQGTKLEIKR
notes: also called scFv 1
B5: human synthetic scFv fragment 8 (scFv)
scFv: EVQLLESGGGLVQPGGSLRLSCAASGFTFSSYAMSWVRQAPGKGLEWVSAISGSGGSTYYASVKGRFTISRDNSKNTLYLQMNSLRAEDTAVYYCARVFYYGPYYFSYHFDYWGQGTLVTVSSGGGGSGGGGSGGGGSDIQMTQSPSSLSASVGDRVTITCRASQSISSYLNWYQQKPGKAPKLLIYAASSLQSGVPSRFSGSGSGTDFTLTISSLQPEDFATYYCQQDDRGLPTFGQGTKLEIKR
notes: also called scFv 8
B6: human synthetic scFv fragment 11 (scFv)
scFv: EVQLLESGGGLVQPGGSLRLSCAASGFTFSSYAMSWVRQAPGKGLEWVSAISGSGGSTYYASVKGRFTISRDNSKNTLYLQMNSLRAEDTAVYYCARYTYYVGGFDYWGQGTLVTVSSGGGGSGGGGSGGGGSDIQMTQSPSSLSASVGDRVTITCRASQSISSYLNWYQQKPGKAPKLLIYAASSLQSGVPSRFSGSGSGTDFTLTISSLQPEDFATYYCQQGFVLSTFGQGTKLEIKR
notes: also called scFv 11
B7: human synthetic scFv fragment 6 (scFv)
scFv: EVQLLESGGGLVQPGGSLRLSCAASGFTFSSYAMSWVRQAPGKGLEWVSAISGSGGSTYYASVKGRFTISRDNSKNTLYLQMNSLRAEDTAVYYCARYVRGYGYGYLDYWGQGTLVTVSSGGGGSGGGGSGGGGSDIQMTQSPSSLSASVGDRVTITCRASQSISSYLNWYQQKPGKAPKLLIYAASSLQSGVPSRFSGSGSGTDFTLTISSLQPEDFATYYCQQAPAYSPFTFGQGTKLEIKR
notes: also called scFv 6
B8: human synthetic scFv fragment 7 (scFv)
scFv: EVQLLESGGGLVQPGGSLRLSCAASGFTFSSYAMSWVRQAPGKGLEWVSAISGSGGSTYYASVKGRFTISRDNSKNTLYLQMNSLRAEDTAVYYCARYTHSTYGYRLDYWGQGTLVTVSSGGGGSGGGGSGGGGSDIQMTQSPSSLSASVGDRVTITCRASQSISSYLNWYQQKPGKAPKLLIYAASSLQSGVPSRFSGSGSGTDFTLTISSLQPEDFATYYCQQDAYHPPTFGQGTKLEIKR
notes: also called scFv 7; AK7
B9: human synthetic scFv fragment 9 (scFv)
scFv: EVQLLESGGGLVQPGGSLRLSCAASGFTFSSYAMSWVRQAPGKGLEWVSAISGSGGSTYYASVKGRFTISRDNSKNTLYLQMNSLRAEDTAVYYCARSHYGSLDYWGQGTLVTVSSGGGGSGGGGSGGGGSDIQMTQSPSSLSASVGDRVTITCRASQSISSYLNWYQQKPGKAPKLLIYAASSLQSGVPSRFSGSGSGTDFTLTISSLQPEDFATYYCQQFSYTLSTFGQGTKLEIKR
notes: also called scFv 9
B10: human synthetic scFv fragment 12 (scFv)
scFv: EVQLLESGGGLVQPGGSLRLSCAASGFTFSSYAMSWVRQAPGKGLEWVSAISGSGGSTYYASVKGRFTISRDNSKNTLYLQMNSLRAEDTAVYYCARTYYYFYPYGYYFDYWGQGTLVTVSSGGGGSGGGGSGGGGSDIQMTQSPSSLSASVGDRVTITCRASQSISSYLNWYQQKPGKAPKLLIYAASSLQSGVPSRFSGSGSGTDFTLTISSLQPEDFATYYCQQGFYLPTFGQGTKLEIKR
notes: also called scFv 12
B11: human synthetic scFv fragment 5 (scFv)
scFv: EVQLLESGGGLVQPGGSLRLSCAASGFTFSSYAMSWVRQAPGKGLEWVSAISGSGGSTYYASVKGRFTISRDNSKNTLYLQMNSLRAEDTAVYYCARSYSWYSRGPSLDYWGQGTLVTVSSGGGGSGGGGSGGGGSDIQMTQSPSSLSASVGDRVTITCRASQSISSYLNWYQQKPGKAPKLLIYAASSLQSGVPSRFSGSGSGTDFTLTISSLQPEDFATYYCQQAFYAHLLTFGQGTKLEIKR
notes: also called scFv 5

The target in this experiment is T1, purified prostasomes (from human seminal plasma) (human).
T1 construct: Not a single protein: exosome-type vesicle purified from seminal plasma
Kind of experiment: direct ELISA, coated purified prostasomes, biotinylated scFv at 4 µg/mL, streptavidin-HRP. The method, then: The wells were washed three times with PBS containing 0.05% Tween 20. Addition of biotinylated human synthetic scFv fragments 1:250 in row A were made and then 1:5 dilutions downwards. The plates were then incubated for 2 h at room temperature and then washed three times with PBS containing 0.05% Tween 20. 100 μL Streptavidine-HRP was added to the wells and incubated for 2 h at room temperature. The wells were washed three times with PBS containing 0.05% Tween 20. 100 μL TMB (tetramethylbenzidine) substrate was added to the wells, and incubated for 20 min and 25 μL 1 M H2SO4 was added to the plate. The plate was read at 450 nm.
Seminal plasma was collected from the Reproduction Centre at Akademiska Hospital (Uppsala, Sweden) following previously described routines (Ronquist, G. K., et al., Prostasomal DNA characterization and transfer into human sperm. Mol Reprod Dev, 2011. 78 (7): p. 467-76). The seminal plasma was thawed and centrifuged at 3,000 g for 12 min. The supernatants were collected and centrifuged at 10,000 g for 30 min. The supernatants were then transferred to new tubes and ultra-centrifuged using a 90Ti rotor (Beckman Coulter, Brea, Calif., USA) at 100,000 g for 2 h. The pellets were resuspended in 0.02 M NaH2PO4, 0.15 M NaCl, pH 7.2 (PBS), overnight at 4° C. The resuspended pellets were then loaded on a chromatography column (XK 60/70, GE Healthcare, Uppsala, Sweden) packed with Superdex 200 gel. Fractions were collected at a flow rate of 5 mL/h. The fractions were then measured with a spectrophotometer where peaks at both 260 nm (nucleic acid) and 280 nm (proteins) corresponds to prostasomes. These fractions were collected and pooled and ultra-centrifuged at 100,000 g. The obtained pellet was resuspended in PBS. The purified prostasomes (1 mg/ml were diluted 1:250 in PBS and 100 μL were added per well in a F96 Polysorb NUNC Immunoplate (Thermo Fisher Scientific, Uppsala, Sweden). The plates were incubated for 2 h at ambient temperature and then washed three times with PBS containing 0.05% Tween 20 (P1379, Sigma-Aldrich). 120 μL 1% bovine serum albumin (BSA, Sigma-Aldrich) in PBS were added to the wells and the plate was incubated over night at ambient temperature. The plate was washed three times with PBS containing 0.05% Tween 20. 100 μL of the biotinylated monoclonal antibodies were added in dilution of 4 μg/mL in PBS to the wells.
B1 came in with an Absorbance of 0.903 absorbance at 450 nm.

For the molecule B2, the Absorbance was found to be 0.394 absorbance at 450 nm.

On to B3, for which the Absorbance worked out at 1.64 absorbance at 450 nm.

For the molecule B4, the Absorbance was found to be 0.643 absorbance at 450 nm.

B5: the Absorbance is 0.653 absorbance at 450 nm.

Take B6: the Absorbance was 0.066 absorbance at 450 nm.

On to B7, for which the Absorbance came to 0.556 absorbance at 450 nm.

The molecule B8 came in with an Absorbance of 1.36 absorbance at 450 nm.

On to B9, for which the Absorbance was 1.29 absorbance at 450 nm.

Consider B10, for which the Absorbance stood at 0.954 absorbance at 450 nm.

Take B11: the Absorbance turned out to be 0.617 absorbance at 450 nm.
